# In the supplement of paper PMC9112550, “Optimization of the antimicrobial peptide Bac7 by deep mutational scanning” (BMC Biology, 2022):
# System: Escherichia coli TOP10
# Test: shrunken log2 fold change of peptide-encoding DNA abundance (4.5 h post-induction vs induction); higher = less antimicrobial activity (less host growth inhibition)
# Conditions: time post-induction: 4.5 h; library: site-saturation at positions 5, 18, 19, 20
# 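Further: peptides expressed intracellularly from a pBAD plasmid library in pooled LB shake-flask culture, induced with 0.3% L-arabinose, DNA abundance read by NGS, three biological replicates, DESeq2 with apeglm shrinkage.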
row,Sequence,shrunken log2 fold change
1,RRIRKRPPRLPRPRPRPVQHPRP,0.134
2,RRIRKRPPRLPRPRPRPVQNPRP,0.49
3,RRIRKRPPRLPRPRPRPVREPRP,0.817
4,RRIRKRPPRLPRPRPRPVSFPRP,-0.0599
5,RRIRKRPPRLPRPRPRPVSPPRP,0.286
6,RRIRKRPPRLPRPRPRPVSVPRP,-0.0496
7,RRIRKRPPRLPRPRPRPVTFPRP,-0.126
8,RRIRKRPPRLPRPRPRPVVHPRP,0.122
9,RRIRKRPPRLPRPRPRPVYGPRP,-0.0742
10,RRIRKRPPRLPRPRPRPWCCPRP,-0.187
11,RRIRKRPPRLPRPRPRPWCYPRP,-0.168
12,RRIRKRPPRLPRPRPRPWFPPRP,-0.0488
13,RRIRKRPPRLPRPRPRPWGQPRP,0.0379
14,RRIRKRPPRLPRPRPRPWHKPRP,-0.145
15,RRIRKRPPRLPRPRPRPWHMPRP,-0.00936
16,RRIRKRPPRLPRPRPRPWIEPRP,0.00935
17,RRIRKRPPRLPRPRPRPWIHPRP,-0.145
18,RRIRKRPPRLPRPRPRPWITPRP,-0.105
19,RRIRKRPPRLPRPRPRPWNLPRP,-0.109
20,RRIRKRPPRLPRPRPRPWPDPRP,0.238
21,RRIRKRPPRLPRPRPRPWPIPRP,0.891
22,RRIRKRPPRLPRPRPRPWPYPRP,-0.146

row,Sequence,shrunken log2 fold change
1,RRIRKRPPRLPRPRPRPWRIPRP,0.0387
2,RRIRKRPPRLPRPRPRPWRPPRP,0.177
3,RRIRKRPPRLPRPRPRPWSWPRP,0.00624
4,RRIRKRPPRLPRPRPRPWVIPRP,-0.182
5,RRIRKRPPRLPRPRPRPWWNPRP,0.0316
6,RRIRKRPPRLPRPRPRPWYRPRP,0.0232
7,RRIRKRPPRLPRPRPRPYALPRP,-0.119
8,RRIRKRPPRLPRPRPRPYAVPRP,0.916
9,RRIRKRPPRLPRPRPRPYDFPRP,0.176
10,RRIRKRPPRLPRPRPRPYECPRP,-0.341
11,RRIRKRPPRLPRPRPRPYEEPRP,-0.0817
12,RRIRKRPPRLPRPRPRPYELPRP,-0.0181
13,RRIRKRPPRLPRPRPRPYGAPRP,0.00792
14,RRIRKRPPRLPRPRPRPYGWPRP,0.05
15,RRIRKRPPRLPRPRPRPYHCPRP,-0.0129
16,RRIRKRPPRLPRPRPRPYHQPRP,-0.231
17,RRIRKRPPRLPRPRPRPYICPRP,0.0572
18,RRIRKRPPRLPRPRPRPYINPRP,-0.627
19,RRIRKRPPRLPRPRPRPYIRPRP,-0.018
20,RRIRKRPPRLPRPRPRPYIVPRP,-0.404
21,RRIRKRPPRLPRPRPRPYLDPRP,-0.0998
22,RRIRKRPPRLPRPRPRPYMIPRP,-0.415

row,Sequence,shrunken log2 fold change
1,RRIRKRPPRLPRPRPRPYNEPRP,-0.254
2,RRIRKRPPRLPRPRPRPYNFPRP,-0.384
3,RRIRKRPPRLPRPRPRPYPNPRP,0.0382
4,RRIRKRPPRLPRPRPRPYRQPRP,-0.122
5,RRIRKRPPRLPRPRPRPYSQPRP,0.0349
6,RRIRKRPPRLPRPRPRPYSYPRP,-0.0565
7,RRIRKRPPRLPRPRPRPYTMPRP,-0.53
8,RRIRKRPPRLPRPRPRPYTNPRP,-0.21
9,RRIRKRPPRLPRPRPRPYVQPRP,-0.332
10,RRIRKRPPRLPRPRPRPYVVPRP,-0.226
11,RRIRKRPPRLPRPRPRPYWCPRP,-0.485
12,RRIRKRPPRLPRPRPRPYYEPRP,-0.493
13,RRIRKRPPRLPRPRPRPYYFPRP,-0.234
14,RRIRLRPPRLPRPRPRPAAGPRP,0.312
15,RRIRLRPPRLPRPRPRPAAYPRP,-0.15
16,RRIRLRPPRLPRPRPRPACGPRP,0.412
17,RRIRLRPPRLPRPRPRPADSPRP,-0.182
18,RRIRLRPPRLPRPRPRPADTPRP,-0.538
19,RRIRLRPPRLPRPRPRPAEEPRP,0.133
20,RRIRLRPPRLPRPRPRPAFLPRP,0.134
21,RRIRLRPPRLPRPRPRPAGSPRP,0.268
22,RRIRLRPPRLPRPRPRPAHAPRP,0.195

row,Sequence,shrunken log2 fold change
1,RRIRLRPPRLPRPRPRPAHIPRP,0.0196
2,RRIRLRPPRLPRPRPRPAHNPRP,0.255
3,RRIRLRPPRLPRPRPRPAIEPRP,0.0744
4,RRIRLRPPRLPRPRPRPAIFPRP,-0.391
5,RRIRLRPPRLPRPRPRPAIIPRP,-0.197
6,RRIRLRPPRLPRPRPRPAILPRP,0.0331
7,RRIRLRPPRLPRPRPRPAKCPRP,-0.0859
8,RRIRLRPPRLPRPRPRPAKRPRP,0.0374
9,RRIRLRPPRLPRPRPRPAKSPRP,-0.0164
10,RRIRLRPPRLPRPRPRPALPPRP,0.128
11,RRIRLRPPRLPRPRPRPANSPRP,-0.202
12,RRIRLRPPRLPRPRPRPAPFPRP,-0.0923
13,RRIRLRPPRLPRPRPRPAQYPRP,-0.0702
14,RRIRLRPPRLPRPRPRPARCPRP,0.651
15,RRIRLRPPRLPRPRPRPARKPRP,0.0589
16,RRIRLRPPRLPRPRPRPASFPRP,-0.0339
17,RRIRLRPPRLPRPRPRPASLPRP,0.105
18,RRIRLRPPRLPRPRPRPATTPRP,0.467
19,RRIRLRPPRLPRPRPRPATWPRP,-0.125
20,RRIRLRPPRLPRPRPRPAVHPRP,-0.149
21,RRIRLRPPRLPRPRPRPAVNPRP,-0.0174
22,RRIRLRPPRLPRPRPRPAVWPRP,0.72

row,Sequence,shrunken log2 fold change
1,RRIRLRPPRLPRPRPRPAYMPRP,-0.275
2,RRIRLRPPRLPRPRPRPAYWPRP,0.154
3,RRIRLRPPRLPRPRPRPCCDPRP,-0.139
4,RRIRLRPPRLPRPRPRPCEEPRP,-0.0266
5,RRIRLRPPRLPRPRPRPCELPRP,-0.358
6,RRIRLRPPRLPRPRPRPCEYPRP,0.0103
7,RRIRLRPPRLPRPRPRPCGWPRP,0.124
8,RRIRLRPPRLPRPRPRPCHNPRP,0.0575
9,RRIRLRPPRLPRPRPRPCIDPRP,-0.166
10,RRIRLRPPRLPRPRPRPCLMPRP,-0.266
11,RRIRLRPPRLPRPRPRPCMAPRP,-0.311
12,RRIRLRPPRLPRPRPRPCMMPRP,-0.225
13,RRIRLRPPRLPRPRPRPCNCPRP,0.045
14,RRIRLRPPRLPRPRPRPCNIPRP,-0.00101
15,RRIRLRPPRLPRPRPRPCPLPRP,-0.333
16,RRIRLRPPRLPRPRPRPCPSPRP,-0.00306
17,RRIRLRPPRLPRPRPRPCRIPRP,-0.0656
18,RRIRLRPPRLPRPRPRPCRSPRP,-0.0599
19,RRIRLRPPRLPRPRPRPCSIPRP,-0.678
20,RRIRLRPPRLPRPRPRPCSVPRP,-0.0962
21,RRIRLRPPRLPRPRPRPCTTPRP,0.0144
